Consider 94 variants from the supplement of paper PMC10567573.

The labels stand for the following.
B1: TRIM29 (parent)
chain: RKCPVHGKTMELFCQTDQTCICYL
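Also: lentivirally expressed fusions sorted by FACS into six bins by GFP to DsRed ratio, PSI derived from sequencing read proportions per bin multiplied by bin number.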

The data set covers variants of B1. As to the kind of experiment: protein stability index of a GFP-peptide fusion (GPS, HEK-293T) (PSI 1-6); higher = more stable. The settings on record: c terminus: a fixed tail appended.
SKCPVHGKTMELFCQTDQTCICYL [R1S]: the protein stability index was 2.19.
Consider MKCPVHGKTMELFCQTDQTCICYL [R1M], for which the protein stability index is 1.95.
Consider KKCPVHGKTMELFCQTDQTCICYL [R1K], for which the protein stability index is 2.22.
Take WKCPVHGKTMELFCQTDQTCICYL [R1W]: the protein stability index came to 2.46.
With TKCPVHGKTMELFCQTDQTCICYL [R1T] the figure was 2.32; with IKCPVHGKTMELFCQTDQTCICYL [R1I], 1.65.
For PKCPVHGKTMELFCQTDQTCICYL [R1P] the value was 2.66.
For VKCPVHGKTMELFCQTDQTCICYL [R1V] the value was 2.98; for NKCPVHGKTMELFCQTDQTCICYL [R1N], 2.84; for LKCPVHGKTMELFCQTDQTCICYL [R1L], 3.04.
With YKCPVHGKTMELFCQTDQTCICYL [R1Y], the protein stability index was determined as 2.48.
For QKCPVHGKTMELFCQTDQTCICYL [R1Q] the value was 1.91; for RKCQVHGKTMELFCQTDQTCICYL [P4Q], 1.95; for RKCDVHGKTMELFCQTDQTCICYL [P4D], 2.63.
For the variant RKCNVHGKTMELFCQTDQTCICYL [P4N], the protein stability index is 3.09.
With RKCAVHGKTMELFCQTDQTCICYL [P4A] the figure was 2.54.
As to RKCVVHGKTMELFCQTDQTCICYL [P4V], the protein stability index is 2.21.
With RKCLVHGKTMELFCQTDQTCICYL [P4L] the figure was 3.39; with RKCFVHGKTMELFCQTDQTCICYL [P4F], 3.42; with RKCKVHGKTMELFCQTDQTCICYL [P4K], 2.58.
On to RKCSVHGKTMELFCQTDQTCICYL [P4S], for which the protein stability index was 2.41.
For RKCIVHGKTMELFCQTDQTCICYL [P4I] the value was 2.52.
Consider RKCYVHGKTMELFCQTDQTCICYL [P4Y], for which the protein stability index came out at 2.12.
As for RKCWVHGKTMELFCQTDQTCICYL [P4W], the protein stability index turned out to be 2.91.
RKCCVHGKTMELFCQTDQTCICYL [P4C]: the protein stability index turned out to be 4.04.
With RKCRVHGKTMELFCQTDQTCICYL [P4R] the figure was 3.52; with RKCEVHGKTMELFCQTDQTCICYL [P4E], 3.3.
As for RKCTVHGKTMELFCQTDQTCICYL [P4T], the protein stability index is 2.25.
For RKCPEHGKTMELFCQTDQTCICYL [V5E] the value was 1.79; for RKCPQHGKTMELFCQTDQTCICYL [V5Q], 1.59; for RKCPIHGKTMELFCQTDQTCICYL [V5I], 2.79.
For RKCPHHGKTMELFCQTDQTCICYL [V5H] the value was 3.76; for RKCPLHGKTMELFCQTDQTCICYL [V5L], 1.92.
As for RKCPGHGKTMELFCQTDQTCICYL [V5G], the protein stability index is 3.21.
With RKCPNHGKTMELFCQTDQTCICYL [V5N] the figure was 4.09; with RKCPRHGKTMELFCQTDQTCICYL [V5R], 2.42.
For RKCPMHGKTMELFCQTDQTCICYL [V5M] the value was 2.58.
Regarding RKCPDHGKTMELFCQTDQTCICYL [V5D], the protein stability index was 3.62.
For RKCPSHGKTMELFCQTDQTCICYL [V5S] the value was 3.1; for RKCPCHGKTMELFCQTDQTCICYL [V5C], 3.08.
Turning to RKCPPHGKTMELFCQTDQTCICYL [V5P], the protein stability index stood at 2.87.
For RKCPYHGKTMELFCQTDQTCICYL [V5Y] the value was 2.71.
For RKCPTHGKTMELFCQTDQTCICYL [V5T] the value was 2.46; for RKCPKHGKTMELFCQTDQTCICYL [V5K], 2.3; for RKCPAHGKTMELFCQTDQTCICYL [V5A], 1.72.
Turning to RKCPWHGKTMELFCQTDQTCICYL [V5W], the protein stability index was 2.52.
With RKCPVHGDTMELFCQTDQTCICYL [K8D] the figure was 1.94; with RKCPVHGPTMELFCQTDQTCICYL [K8P], 1.48.
For RKCPVHGRTMELFCQTDQTCICYL [K8R] the value was 2.09; for RKCPVHGITMELFCQTDQTCICYL [K8I], 1.59; for RKCPVHGQTMELFCQTDQTCICYL [K8Q], 2.
Turning to RKCPVHGWTMELFCQTDQTCICYL [K8W], the protein stability index worked out at 2.77.
With RKCPVHGHTMELFCQTDQTCICYL [K8H] the figure was 2.83; with RKCPVHGNTMELFCQTDQTCICYL [K8N], 2.56.
For RKCPVHGYTMELFCQTDQTCICYL [K8Y] the value was 1.23; for RKCPVHGVTMELFCQTDQTCICYL [K8V], 2.54; for RKCPVHGMTMELFCQTDQTCICYL [K8M], 2.45.
With RKCPVHGCTMELFCQTDQTCICYL [K8C] the figure was 1.85; with RKCPVHGLTMELFCQTDQTCICYL [K8L], 1.37; with RKCPVHGFTMELFCQTDQTCICYL [K8F], 2.24.
Regarding RKCPVHGTTMELFCQTDQTCICYL [K8T], the protein stability index was found to be 2.52.
RKCPVHGSTMELFCQTDQTCICYL [K8S]: the protein stability index was 1.44.
With RKCPVHGGTMELFCQTDQTCICYL [K8G] the figure was 1.59; with RKCPVHGATMELFCQTDQTCICYL [K8A], 2.58.
For RKCPVHGETMELFCQTDQTCICYL [K8E] the value was 2.59; for RACPVHGKTMELFCQTDQTCICYL [K2A], 2.54; for RGCPVHGKTMELFCQTDQTCICYL [K2G], 2.57.
On to RYCPVHGKTMELFCQTDQTCICYL [K2Y], for which the protein stability index was determined as 1.8.
For RSCPVHGKTMELFCQTDQTCICYL [K2S] the value was 2.27; for RLCPVHGKTMELFCQTDQTCICYL [K2L], 2.36.
For RCCPVHGKTMELFCQTDQTCICYL [K2C], the protein stability index came out at 1.82.
With RICPVHGKTMELFCQTDQTCICYL [K2I] the figure was 1.94; with RECPVHGKTMELFCQTDQTCICYL [K2E], 1.65.
For RRCPVHGKTMELFCQTDQTCICYL [K2R] the value was 1.69; for RVCPVHGKTMELFCQTDQTCICYL [K2V], 2.02; for RPCPVHGKTMELFCQTDQTCICYL [K2P], 3.02.
Consider RFCPVHGKTMELFCQTDQTCICYL [K2F], for which the protein stability index was 2.36.
For RHCPVHGKTMELFCQTDQTCICYL [K2H] the value was 2.15; for RWCPVHGKTMELFCQTDQTCICYL [K2W], 2.91; for RMCPVHGKTMELFCQTDQTCICYL [K2M], 2.17.
For RQCPVHGKTMELFCQTDQTCICYL [K2Q], the protein stability index was 2.12.
With RNCPVHGKTMELFCQTDQTCICYL [K2N] the figure was 2.68.
In the case of RDCPVHGKTMELFCQTDQTCICYL [K2D], the protein stability index was 2.15.
With RTCPVHGKTMELFCQTDQTCICYL [K2T] the figure was 1.7.
On to RKCPVHWKTMELFCQTDQTCICYL [G7W], for which the protein stability index came out at 1.4.
For RKCPVHCKTMELFCQTDQTCICYL [G7C] the value was 2.5; for RKCPVHMKTMELFCQTDQTCICYL [G7M], 2.35; for RKCPVHQKTMELFCQTDQTCICYL [G7Q], 3.09.
With RKCPVHYKTMELFCQTDQTCICYL [G7Y] the figure was 2.14; with RKCPVHHKTMELFCQTDQTCICYL [G7H], 2.38; with RKCPVHPKTMELFCQTDQTCICYL [G7P], 2.46.
With RKCPVHEKTMELFCQTDQTCICYL [G7E] the figure was 2.6.
On to RKCPVHIKTMELFCQTDQTCICYL [G7I], for which the protein stability index came to 3.48.
With RKCPVHLKTMELFCQTDQTCICYL [G7L] the figure was 2.26.
